# Test results from patent publication US20240024501A1 (BONUM THERAPEUTICS, published 2024).
# Molecular target: PD-1-Fc (UniProt Q15116 25-167, limits assumed)
# Assay: cell-based or functional assay
# PD-1-Fc, sequence (Q15116 25-167 limits assumed): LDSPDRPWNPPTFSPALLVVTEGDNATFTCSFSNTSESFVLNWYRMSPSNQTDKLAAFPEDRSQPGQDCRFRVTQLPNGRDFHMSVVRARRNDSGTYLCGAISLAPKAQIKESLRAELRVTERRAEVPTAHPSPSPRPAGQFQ
binder,measurement,value
AF4386 (other) heavy 1: APTSSSTKKTQLQLEHLLLDLQMILNGINNYKNPKLTDMLTFEFYMPKKATELKHLQCLERELKPLEEVLNLAQSKNFHLRPRDLISNINVIVLELKGSETTFMCEYADETATIVEFLNRWITFCQSIISTLTGGGGSGGGGSGGGGSGGGGSQVQLVQSGAEVKKPGASVKVSCKASGDTFTRYYVHWVRQAPGQGLEWMGIINPSGGYASYAQKFQGRVTMTRDTSTSTVYMELSSLRSEDTAVYYCAAGLFIWGQGTLVTVSSAKTTAPSVYPLAPVCGDTTGSSVTLGCLVKGYFPEPVTLTWNSGSLSSGVHTFPAVLQSDLYTLSSSVTVTSSTWPSQSITCNVAHPASSTKVDKKIEPRGPTIKPCPPCKCPAPNAAGGPSVFIFPPKIKDVLMISLSPIVTCVVVDVSEDDPDVQISWFVNNVEVHTAQTQTHREDYNSTLRVVSALPIQHQDWMSGKEFKCKVNNKDLGAPIERTISKPKGSVRAPQVYVLPPPEEEMTKKQVTLTCMVTDFMPEDIYVEWTNNGKTELNYKNTEPVLDSDGSYFMYSDLRVEKKNWVERNSYSCSVVHEGLHNHHTTESFSRTPGK heavy 2: QVQLVQSGAEVKKPGASVKVSCKASGDTFTRYYVHWVRQAPGQGLEWMGIINPSGGYASYAQKFQGRVTMTRDTSTSTVYMELSSLRSEDTAVYYCAAGLFIWGQGTLVTVSSAKTTAPSVYPLAPVCGDTTGSSVTLGCLVKGYFPEPVTLTWNSGSLSSGVHTFPAVLQSDLYTLSSSVTVTSSTWPSQSITCNVAHPASSTKVDKKIEPRGPTIKPCPPCKCPAPNAAGGPSVFIFPPKIKDVLMISLSPIVTCVVVDVSEDDPDVQISWFVNNVEVHTAQTQTHREDYNSTLRVVSALPIQHQDWMSGKEFKCKVNNKDLGAPIERTISKPKGSVRAPQVYVLPPPEKEMTKKQVSLTCLVKDFMPEDIYVEWTNNGKTELNYKNTEPVLKSDGSYFMYSKLTVEKKNWVERNSYSCSVVHEGLHNHHTTKSFSRTPGGGGSGGGSHHHHHH light: DIQMTQSPSSLSASVGDRVTITCRASQSIGRYLAWYQQKPGKAPKLLIYSASNLETGVPSRFSGSGSGTDFTLTISSLQPEDFATYYCQQYNSFPVTFGPGTKVDIKRADAAPTVSIFPPSSEQLTSGGASVVCFLNNFYPKDINVKWKIDGSERQNGVLNSWTDQDSKDSTYSMSSTLTLTKDEYERHNSYTCEATHKTSTSPIVKSFNRNEC,"EC50 of IL-2 activity, HEK-Blue IL-2 reporter cells, IgG1 coated wells (no PD-1)",1790 pM
same,"EC50 of IL-2 activity, HEK-Blue IL-2 reporter cells, PD-1 coated wells",50 pM
